# According to patent publication US9428586B2, “Heparanase splice variant” (COMPUGEN LTD, priority 2010, dated 2016):
# T1: heparanase (Homo sapiens, UniProt Q9Y251)
# T1 construct: the 8 kDa portion and the 50 kDa portion form a heterodimer, which is enzymatically active
# T1 sequence (Q9Y251 36-109 limits assumed): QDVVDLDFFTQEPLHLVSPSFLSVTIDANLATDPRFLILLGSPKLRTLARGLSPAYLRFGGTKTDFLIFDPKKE
# T1 sequence (Q9Y251 158-543 limits assumed): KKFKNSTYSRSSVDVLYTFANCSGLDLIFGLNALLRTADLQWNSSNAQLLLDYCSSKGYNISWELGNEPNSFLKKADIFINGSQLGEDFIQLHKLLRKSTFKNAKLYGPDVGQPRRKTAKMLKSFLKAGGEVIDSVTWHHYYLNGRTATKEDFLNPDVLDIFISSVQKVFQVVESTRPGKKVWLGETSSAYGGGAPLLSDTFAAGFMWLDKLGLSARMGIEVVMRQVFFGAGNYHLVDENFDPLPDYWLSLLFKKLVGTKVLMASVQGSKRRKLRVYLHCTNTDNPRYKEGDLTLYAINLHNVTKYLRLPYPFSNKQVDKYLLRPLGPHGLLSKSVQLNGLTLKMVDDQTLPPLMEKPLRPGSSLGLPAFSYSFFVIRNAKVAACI
# B1: heparanase: full length wild type human heparanase, endo-β-D-glucuronidase (protein)
# chain: QDVVDLDFFTQEPLHLVSPSFLSVTIDANLATDPRFLILLGSPKLRTLARGLSPAYLRFGGTKTDFLIFDPKKESTFEERSYWQSQVNQDICKYGSIPPDVEEKLRLEWPYQEQLLLREHYQKKFKNSTYSRSSVDVLYTFANCSGLDLIFGLNALLRTADLQWNSSNAQLLLDYCSSKGYNISWELGNEPNSFLKKADIFINGSQLGEDFIQLHKLLRKSTFKNAKLYGPDVGQPRRKTAKMLKSFLKAGGEVIDSVTWHHYYLNGRTATKEDFLNPDVLDIFISSVQKVFQVVESTRPGKKVWLGETSSAYGGGAPLLSDTFAAGFMWLDKLGLSARMGIEVVMRQVFFGAGNYHLVDENFDPLPDYWLSLLFKKLVGTKVLMASVQGSKRRKLRVYLHCTNTDNPRYKEGDLTLYAINLHNVTKYLRLPYPFSNKQVDKYLLRPLGPHGLLSKSVQLNGLTLKMVDDQTLPPLMEKPLRPGSSLGLPAFSYSFFVIRNAKVAACI
# What was measured:
# Src [1] = assay: Src phosphorylation (immunoblot, densitometry) in CAG myeloma cells; format: cell-based, human; conditions: serum-free
# Procedure: (§1) FIG. 3. T5 augments Src phosphorylation. A. Over expression. CAG myeloma (left) and 293 (right) cells infected with heparanase (Hepa), T5, or control empty vector (Vo) were grown in the absence (−) or presence (+) of heparin (50 μg/ml) under serum-free conditions. Total cell lysates were subjected to immunoblotting applying anti-heparanase 1453 (upper and second panels), anti-phospho-Src (p-Src, third panels), anti-Src (fourth panels) anti-phospho-Erk (p-Erk, fifth panels), and anti-Erk2 (sixth panels) antibodies. Src phosphorylation index was calculated by densitometry analysis of phosphorylated Src levels divided by the total Src values. Data is presented as average fold increase ±SE of Src phosphorylation compared with control, Vo cells, set arbitrary to a value of 1 (lower panels) of five independent experiments. B. Gene silencing. Parental 293 cells were transfected with anti-heparanase, anti-T5, or control siRNAs. Total RNA was extracted and RT-PCR analysis was performed applying T5 (upper panel), heparanase (Hepa, second panel) and GAPDH (third panel) specific primers. Corresponding cell lysates were subjected to immunoblotting applying phospho-Src (p-Src, fourth panel), Src (fifth panel), phospho-Erk (p-Erk, sixth panel) and Erk2 (seventh panel) antibodies. Src phosphorylation index was calculated as above and is shown graphically in the lower panel. Note decreased Src phosphorylation levels upon T5 down regulation.
# (§2) Preparation of cell lysates, protein blotting, and measurement of heparanase enzymatic activity were carried out as described previously (Zetser, A., et al., 2006, Cancer Res 66, 1455-1463; Fux, L., et al., 2009, Cancer Res 69, 1758-1767).
# 293 cells = assay: T5 and heparanase levels in cell conditioned medium with heparin (immunoblot); format: cell-based, human; conditions: heparin 50 μg/ml, 20 h, serum-free
# Excerpt: (§3) FIG. 7. […] A. Cell lysates. […] B,C. Peptide analysis. […] C. Enzymatic activity.
# heparanase = molecular target: T1, heparanase; assay: Inhibition of purified active heparanase by peptides (35S-labeled ECM degradation); format: biochemical; conditions: peptide 50 μg/ml; purified active heparanase 40 ng
# Procedure: as §3, §2
# Binding to heparin beads = conditions: gel electrophoresis prior to or following incubation with heparin beads
# Excerpt: as §3
# T5 = T5 protein bands in T5-transfected 293 cells treated with tunicamycin or chloroquine (immunoblot); format: cell-based, human; conditions: tunicamycin 10, 20 μg/ml
# Excerpt: FIG. 2. Cloning and expression of T5. A. RT-PCR analysis. Total RNA was extracted from the indicated cell line and subjected to RT-PCR analysis applying T5 (upper panel), heparanase (second panel) and GAPDH (third panel) specific primers, specified in the ‘Materials and Methods’ section. B. T5 transfection. […] Control cells were transfected with an empty vector (Vo). Cell lysates (left) and cell conditioned medium (right) were blotted with anti-heparanase 1453 antibody. C. Cellular localization. Stably transfected 293 cells were triple stained for Myc-tag (T5; middle, red), the ER marker calnexin (ER, left, green), and merged with cell nuclei labeled with TO-PRO (right, blue). Cells were similarly stained with anti-Myc-tag (T5; middle, red), the Golgi marker wheat germ agglutinin-FITC (Golgi, left, green) and merged with cell nuclei labeled with TO-PRO (right, blue). […] D. Enzymatic activity. 293 cells transfected with heparanase (Hepa), T5 or control empty vector (Vo) were subjected to three freeze-thaw cycles and applied onto culture dishes coated with ^35S-labelled ECM. Release of sulfate-labeled material eluted in fractions 15-30 was evaluated as measure of heparanase activity, as described in ‘Materials and Methods’. […]
# Src [2] = assay: Src phosphorylation (immunoblot, densitometry) in 293 cells; format: cell-based, human; conditions: over expressing 293 cells, serum-free
# Procedure: as §1, with “(-)” for “(−)”, “Data is presented as average fold increase ±SE of Src phosphorylation compared with control, Vo cells, set arbitrary to a value of 1 (lower panels) of five independent experiments.” left out, “regulation. […]” for “regulation.”
# Erk = Erk phosphorylation (immunoblot) in CAG myeloma and 293 cells; format: cell-based, human
# Procedure: as §1, with “Note decreased Src phosphorylation levels upon T5 down regulation.” left out
# CAG myeloma cells [3] = assay: Cell proliferation by BrdU incorporation, CAG myeloma cells; format: cell-based, human; conditions: infected CAG cells, serum-free 20 h, BrdU 2 h; control Vo 24±3%
# Procedure: (§4) FIG. 4. T5 augments cell proliferation. A. BrdU incorporation. Morphology of control (Con), heparanase (Hepa)- and T5-infected CAG myeloma cell cultures is shown in the upper panels. […] Sub-confluent cultures of control (Vo), heparanase (Hepa)- and T5-infected CAG cells were grown in serum-free medium for 20 h followed by incubation with BrdU (1:1000) for 2 h. Cells were then fixed and immunostained with anti BrdU monoclonal antibody. Positively stained, red-brown nuclei were counted vs. blue, hematoxilin counter-stained nuclei. At least 1000 cells were counted for each cell type and the percentage of positively stained cells is noted in each panel. Fold increase in BrdU incorporation is shown graphically on the right panel. Gene silencing. 293 cells were transfected with anti-GFP (si-GFP), anti-heparanase (si-Hepa) or anti-T5 siRNA oligonucleotides and BrdU incorporation was evaluated as above except that cells were kept in serum-containing medium (lower panels). Note 2-fold decrease in BrdU incorporation following heparanase or T5 gene silencing (lower right panel). B. Colony formation in soft agar. […]
# Cell proliferation was analyzed by BrdU incorporation using cell proliferation labeling reagent (1:1000, GE Healthcare), as described in Zetser, A., et al (2003 Cancer Res 63, 7733-7741). At least 1000 cells were counted for each cell type.
# [4] = tested on: CAG myeloma, FaDu pharynx carcinoma and 293 cells; assay: Colony formation in soft agar; format: cell-based, human; conditions: over expression in CAG myeloma, FaDu and 293 cells
# Procedure: as §4
# Three ml of DMEM containing 0.5% low melt agarose (Bio-Rad, Hercules, Calif.) and 10% fetal calf serum was poured into 60 mm petri dishes. […] Colonies were visualized and counted under a microscope after 2-5 weeks, as described.
# CAG myeloma cells [5] = assay: CAG myeloma tumor xenograft development and immunohistochemistry; format: in vivo, athymic nude mice
# Procedure: FIG. 5. T5 enhances tumor xenograft development. Control (Vo), heparanase-, and T5-infected CAG myeloma cells were injected subcutaneously (1×10^6/0.1 ml) and tumor volume was calculated (A). At the end of the experiment on day 37, tumors were resected, photographed (A, inset) and weighted (B). C. Immunohistochemical analysis. Paraffin-embedded 5 micron sections were stained with hematoxilin & eosin (left column), anti-CD31 (second left column), and anti-smooth muscle actin (SMA, two right columns) antibodies. Note increased blood vessels density and maturation (recruitment of SMA-positive cells) in xenografts produced by heparanase- and T5-infected cells. Cells from exponential cultures of control-, heparanase-, and T5-infected CAG myeloma cells were detached with trypsin/EDTA, washed with PBS and brought to a concentration of 1×10^7 cells/ml. Cell suspension (1×10 6/0.1 ml) was inoculated subcutaneously at the right flank of 5-weeks old female athymic nude mice (n=7). Xenograft size was determined twice a week by externally measuring tumors in two dimensions using a caliper. At the end of the experiment, mice were sacrificed and xenografts were removed, weighted and fixed in formalin. Paraffin-embedded 5 micron sections were subjected to immunostaining with anti-PECAM-1 (CD31) or anti-smooth muscle actin (1A4, Sigma) antibodies, using the Envision kit, according to the manufacturer's (Dako, Glostrup, Denmark) instructions, as described (Fux, L., et al., 2009, Cancer Res 69, 1758-1767). All animal experiments were approved by the Animal Care Committee of the Technion, Haifa, Israel.
# [6] = CAG xenografts, immunohistochemistry
molecule,measurement,setting,value
heparin,effect of heparin on Src phosphorylation enhanced by heparanase or T5,"Src [1]; heparin 50 μg/ml, CAG myeloma and 293 cells",not affected
same,T5 levels in the cell culture medium upon addition of heparin,293 cells,not affected
same,heparanase levels in the cell culture medium upon addition of heparin,293 cells,markedly increased
CKKFKNSTYSSKK [CKKK],inhibition of heparanase enzymatic activity,heparanase,failed to interact with heparin or to inhibit heparanase enzymatic activity
same,interaction of peptide with heparin,Binding to heparin beads,failed to interact with heparin
tunicamycin,amount of the ˜17 kDa T5 band,T5,markedly reduced
B1,Src phosphorylation increase vs control Vo cells,Src [1]; infected CAG myeloma cells,~3 fold
same,Src phosphorylation enhancement vs control Vo cells,Src [2],~4 fold
same,Erk phosphorylation upon over expression,Erk,not affected
same,BrdU incorporation (positively stained cells),CAG myeloma cells [3],49±6%
same,"colony number, size and cell density in soft agar",[4],markedly increased
same,micro vessel density (CD31),CAG myeloma cells [5]; [6],two-fold increase in vessel density
same,pericytes associated with blood vessels (smooth muscle actin),CAG myeloma cells [5]; [6],significantly increased number of pericytes
same,average weight of xenografts,"CAG myeloma cells [5]; day 37, subcutaneous infected CAG cells, control 58±11 mg",648 ± 69 mg
same,development of tumor xenografts after day 21 vs control cells,CAG myeloma cells [5]; subcutaneous infected CAG cells,markedly enhanced
